Experimental data reported in patent publication US6746858B1, “Murd protein and gene of Streptococcus pyogenes” (Merck & Co. Inc., priority 1997, dated 2004).

Experiments:
E. coli MurD = E. coli MurD (Escherichia coli, UniProt P14900); conditions: 350 μM UDP-N-acetyl-muramyl-L-alanine
Protocol: The ATP-dependent MurD activity was assayed by monitoring the formation of product ADP using the pyruvate kinase and lactate dehydrogenase coupled enzyme assay. The reaction was monitored spectrophotometrically.
Typically, the assay contained 100 mM BIS-TRIS-propane, pH 8.0, 200 μM NADH, 1 mM ATP, 20 mM PEP, 5 mM MgCl2, 1 mM DTT, 350 μM UDP-N-acetyl-muramyl-L-alanine, 1 mM D-glutamate, 33 units/ml of pyruvate kinase and 1660 units/ml of lactate dehydrogenase in a final volume of 200 or 400 μL. The mixture was incubated at 25° C. for 5 min and the reaction initiated by the addition of 1-10 μg of MurD. ADP formation was monitored by the decrease in absorbance at 340 nm as a function of time using a Molecular Devices SpectramaxPlus microtiterplate spectrophotomer (for 200 μl assays) or a Hewlett-Packard HP8452A spectrophotometer equipped with a circulating water bath (for 400 μl assays). Rates were calculated from the linear portions of the progress curves using the extinction coefficient for NADH, e=6220 cm^−1 M^−1. One unit of MurD activity is equal to 1 μmol of ADP formed per min at 25° C.
Assays have been conducted using 120 and 350 μM UDP-N-acetyl-muramyl-L-alanine.

S. pyogenes MurD = assay: ATP-dependent MurD activity, pyruvate kinase/lactate dehydrogenase coupled enzyme assay (ADP formation); assay type: biochemical, Streptococcus pyogenes; conditions: partially purified, UDP-N-acetylmuramyl-L-ala 350 μM, D-glutamate 1 mM, ATP 1 mM, 200 μl, 25° C.
Protocol: The cell pellet from 100 ml of induced culture prepared as described above was resuspended in 10 ml BT buffer (50 mM bis-tris-propane, pH 8.0, containing 100 mM potassium chloride and 1% glycerol) at 4° C. Cells were lysed either by freeze-thaw or by French Press. After centrifugation, the supernatant was mixed with 15 ml of freshly prepared Talon resin and incubated for 30 min at room temp. The resin was washed twice by centrifugation with 25 ml of BT buffer at room temperature. Finally, the resin loaded into a column and washed with 20 ml of BT, pH 7.0, containing 5 mM imidazole. Protein was eluted with 20 ml of BT buffer pH 8.0, containing 100 mM imidazole. Fractions (0.5 ml) were collected and analyzed by SDS-Gel electrophoresis. Fractions containing MurD were pooled, cleaved with thrombin (20 units/mg of His-tagged MurD) to remove the histidine tag. Finally the MurD protein was purified on Superdex 75 size exclusion column and eluted in 10 mM tris, pH 7.4, 150 mM NaCl and dialyzed in 100 mM MOPS, pH 7.5, using a Slide-A-Lyzer (Pierce, Rockford, Ill.). […] The protein may be purified further, if desired, using methods known in the art.
The reaction was monitored spectrophotometrically.

E. coli MurD, sequence (P14900 whole entry): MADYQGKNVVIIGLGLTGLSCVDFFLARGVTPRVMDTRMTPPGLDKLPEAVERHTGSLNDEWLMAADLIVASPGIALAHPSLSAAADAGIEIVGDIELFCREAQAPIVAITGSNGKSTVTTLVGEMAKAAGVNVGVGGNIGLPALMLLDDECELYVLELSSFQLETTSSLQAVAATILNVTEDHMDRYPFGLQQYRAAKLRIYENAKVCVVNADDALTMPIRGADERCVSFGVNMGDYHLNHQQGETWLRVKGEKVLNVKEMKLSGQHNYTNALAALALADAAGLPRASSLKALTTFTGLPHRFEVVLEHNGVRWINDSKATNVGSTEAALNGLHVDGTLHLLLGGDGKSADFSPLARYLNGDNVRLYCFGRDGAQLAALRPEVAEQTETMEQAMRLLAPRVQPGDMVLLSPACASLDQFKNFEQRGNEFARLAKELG

## CC(=O)N[C@H]1C(OP(=O)(O)OP(=O)(O)OC[C@H]2O[C@@H](n3ccc(=O)[nH]c3=O)[C@H](O)[C@@H]2O)O[C@H](CO)[C@@H](O)[C@@H]1O[C@H](C)C(=O)N[C@H](C)C(=O)O (stereo partly drawn) [UDP-N-acetyl-muramyl-L-alanine]
E. coli MurD
  substrate inhibition of the E. coli MurD: substrate inhibition

B1: S. pyogenes: recombinant Streptococcus pyogenes MurD protein (SEQ ID NO:2), His-tag removed, partially purified (protein)
chain: MKVISNFQNKKILILGLAKSGEAAAKLLTKLGALVTVNDSKPFDQNPAAQALLEEGIKVICGSHPVELLDEDFEYMVKNPGIPYDNPMVKRALAKEIPILTEVELAYFVSEAPIIGITGSNGKTTTTTMIADVLNAGGQSALLSGNIGYPASKVVQKAIAGDTLVMELSSFQLVGVNAFRPHIAVITNLMPTHLDYHGSFEDYVAAKWMIQAQMTESDYLILNANQEISATLAKTTQATVIPFSTQKVVDGAYLKDGILYFKEQAIIAATDLGVPGSHNIENALATIAVAKLSGIADDIIAQCLSHFGGVKHRLQRVGQIKDITFYNDSKSTNILATQKALSGFDNSRLILIAGGLDRGNEFDDLVPDLLGLKQMIILGESAERMKRAANKAEVSYLEARNVAEATELAFKLAQTGDTILLSPANASWDMYPNFEVRGDEFLATFDCLRGDA
modifications: His-tag removed; Streptococcus pyogenes MurD
S. pyogenes MurD; 0.00137 mg protein
  units: 0.00017 µmol/min
S. pyogenes MurD
  Specific activity: 0.13 µmol/min/mg
